Assay results as given in patent publication US20160355575A1 (Hoffmann-La Roche, published 2016).

T1: Aβ fragment 29-40 (human)
T1 peptide: GAIIGLMVGGVV

T2: Aβ fragment 1-16 (human)
T2 construct: also called Aβ1-16; Aβ16
T2 peptide: DAEFRHDSGYEVHHQK

B1: VHH R3VQ (VHH)
VHH: EVQLQASGGGLVQTGDSLRLSCADSGSTFRNYNIGWFRQTPGQAREFVAAVSRTGISTHVADSLQGRFTISRDNAKNTVYLQMNSLKPEDTAVYSCAAGRPGVGAVNRAMDYDYWGQGTQVTVSS
notes: Alpaca VHH, monomeric; Expressed with a His-tag or a Strep-tag; also called R3VQ(His)-NH2 1; R3VQ-NH2 1; not shown: 6-Histidine tag (vector pET23) or Streptavidin-tag (vector pASK IBA2)
B2: R3VQ(His)-N-(DOTA/Gd) conjugate 2c (VHH)
VHH: B1 VHH
modifications: DOTA/Gd randomly on lysine residues; average Gd/protein (1) 2 (3)
notes: Non-site-specific conjugate of R3VQ(His)-NH2 1; not shown: 6-Histidine tag from modified vector pET23
B3: R3VQ(His)-N-(DOTA/Gd) conjugate 2d (VHH)
VHH: B1 VHH
modifications: DOTA/Gd randomly on lysine residues; average Gd/protein (1) 2 (3)
notes: as for B2
B4: Aβ 16-35 (peptide)
peptide: KLVFFAEDVGSNKGAIIGLM
notes: This fragment is not in the list of fragments said to be tested (1-16, 10-20, 15-25, 22-35, 29-40)

How the values were obtained:
Aβ fragment 29-40 = target: T1, Aβ fragment 29-40; test: competitive inhibition ELISA with soluble Aβ fragments
Description: (§1) The binding affinity of VHHs was determined as previously described (Friguet B. et al., 1985, Immunol Methods, 77:305-19). Briefly, various concentrations of Aβ peptides (Aβ fragments 1-16, 10-20, 15-25, 22-35 and 29-40) were incubated in solution overnight at 4° C. with a known quantity of VHH until equilibrium was reached. The VHH concentration used was deteimined by preliminary ELISA calibrations. Each mixture (100 μl) was transferred to a well of a microtiter plate previously coated with antigen and was incubated for 20 min at 4° C. The plates were washed with buffer 0.1% Tween 20 in PBS and bound VHHs were detected by adding beta-galactosidase-conjugated goat anti-rabbit Igs (Biosys, Compiegne, France) and 4-methylumbelliferyl […] (Sigma). Fluorescence was read (Fluoroskan, Labsystem, Finland) at 460 nm, after excitation at 355 nm. KD was estimated from the slope of the regression curve obtained by plotting the reciprocal of the fraction of bound antibody versus the reciprocal of the molar concentration of antigen.

Aβ fragment 1-16 = target: T2, Aβ fragment 1-16; test: as above
Description: as §1

A-beta 42 peptide (Aβ42) = target: T3, A-beta 42 peptide (Aβ42) (human); test: competition ELISA in solution (method of Friguet et al.)
T3 construct: Synthetic peptide (Bachem); on the western blot it ran as monomers, dimers and trimers; also called Aβ1-42; amyloid β peptide 42
T3 sequence (peptide, as listed by the source): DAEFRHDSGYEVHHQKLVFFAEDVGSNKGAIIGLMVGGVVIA

A-beta 40 peptide (Aβ40) = target: T4, A-beta 40 peptide (Aβ40) (human, biotinylated when bound to the streptavidin-coated ELISA plate); test: ELISA on plate-bound Aβ
T4 construct: Aβ42 without the C-terminal amino acids IA; The ELISA methods say A-beta 40 or A-beta 42 (preferably A-beta 40); also called Aβ1-40
T4 sequence (peptide, as listed by the source): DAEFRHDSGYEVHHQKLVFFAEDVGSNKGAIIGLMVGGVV

VHH R3VQ = target: B1; test: competitive inhibition ELISA, soluble peptide against plate-coated Aβ antigen
Description: as §1

Binder: B1
- binding result (Aβ fragment 29-40): no binding
- binding result (Aβ fragment 1-16): no binding
- Kd (A-beta 42 peptide (Aβ42)): 17 nM

Binder: B2
- binding in ELISA compared to the original VHH 1 (A-beta 40 peptide (Aβ40)): ~10%

Binder: B3
- binding in ELISA compared to the original VHH 1 (A-beta 40 peptide (Aβ40)): ~10%

Binder: B4
- IC50 (VHH R3VQ): 16 nM
